“And” between values parts separate entries of the source, which are not always exact repeats. Equal entries are not always repeated. Where two headings read alike, the source gives them in different places.
Experiments:
Assay in all cases: cell-based or functional assay
[1] = target: Omicron BA.1 spike on pseudovirus (SARS-CoV-2)
[2] = target: Omicron BA.2.12.1 spike on pseudovirus (SARS-CoV-2)
[3] = target: Alpha spike (B.1.1.7) on pseudovirus (SARS-CoV-2)
[4] = target: Gamma spike (P.1) on pseudovirus (SARS-CoV-2)
[5] = target: Omicron BA.1 spike on pseudovirus (SARS-CoV-2); remark: listed apart in the source
[6] = target: Omicron BA.2 spike on pseudovirus (SARS-CoV-2)
[7] = target: Wuhan_Hu-1 spike (B.1_614D) on pseudovirus (SARS-CoV-2, UniProt P0DTC2 14-1273)
[8] = target: Omicron BA.2.75 spike on pseudovirus (SARS-CoV-2)
[9] = target: Wuhan_Hu-1_D614G spike (B.1) on pseudovirus (SARS-CoV-2, UniProt P0DTC2 14-1273)
[10] = target: Delta spike (B.1.617.2) on pseudovirus (SARS-CoV-2)
[11] = target: Omicron BA.4.6 spike on pseudovirus (SARS-CoV-2)
[12] = target: Beta spike (B.1.351) on pseudovirus (SARS-CoV-2)
[13] = target: Omicron BQ.1.1 spike on pseudovirus (SARS-CoV-2)
[14] = target: Omicron BA.4/5 spike on pseudovirus (SARS-CoV-2)
[15] = target: Omicron BA.2.12.1 spike on pseudovirus (SARS-CoV-2); remark: listed apart in the source
[16] = target: Omicron BA.1 spike on pseudovirus (SARS-CoV-2); remark: listed apart in the source
[17] = target: Omicron BA.2 spike on pseudovirus (SARS-CoV-2); remark: listed apart in the source
[18] = target: Omicron BA.2.75 spike on pseudovirus (SARS-CoV-2); remark: listed apart in the source
[19] = target: Omicron BA.4.6 spike on pseudovirus (SARS-CoV-2); remark: listed apart in the source
[20] = target: Omicron BA.4/5 spike on pseudovirus (SARS-CoV-2); remark: listed apart in the source
[21] = target: Wuhan_Hu-1_D614G spike (B.1) on pseudovirus (SARS-CoV-2, UniProt P0DTC2 14-1273); remark: listed apart in the source
[22] = target: Wuhan_Hu-1 spike (B.1_614D) on pseudovirus (SARS-CoV-2, UniProt P0DTC2 14-1273); remark: listed apart in the source

B1: ACOVIMAB (antibody, V domains shown)
VH: EVQLVESGPEVKKPGTSVKVSCKASGFTFTTTSSVQWVRQARGQRLEWIGWIVVGSGETEYAQNFQDRVTITSDMSTTTAYMEMSSLRSEDSAFYYCAAPYCSGGTCMDGFDLWGQGTLVSVSS
VL: EIVLTQSPGTLSLSPGERATLSCRASQSVRSNYLGWYQQKPGQAPRLLIYAASSRATGIPDRFSGSGSGTDFTLTISRLEPEDFAVYYCQQYDRSPWTFGQGTKVESKR
IC50 vs BA1 [1]: 0.9 ng/ml and 60 pM
IC50, pseudovirus neutralization [2]: 3.7 ng/mL
IC50, pseudovirus neutralization [3]: 5.2 ng/mL
IC50, pseudovirus neutralization [4]: 2.9 ng/mL
IC50, pseudovirus neutralization [5]: 1.3 ng/mL
IC50, pseudovirus neutralization [6]: 2.9 ng/mL
IC50, pseudovirus neutralization [7]: 9 ng/mL
IC50, pseudovirus neutralization [8]: 3.7 ng/mL
IC50, pseudovirus neutralization [9]: 5.9 ng/mL
IC50, pseudovirus neutralization [10]: 5.1 ng/mL
IC50, pseudovirus neutralization [11]: 0.22 µg/mL
IC50, pseudovirus neutralization [12]: 2 ng/mL
IC50, pseudovirus neutralization [13]: 0.29 µg/mL
IC50, pseudovirus neutralization [14]: 0.22 µg/mL
IC50, pseudovirus neutralization [15]: 1 to 3 ng/mL
IC50, pseudovirus neutralization [16]: 1 to 3 ng/mL
IC50, pseudovirus neutralization [17]: 1 to 3 ng/mL
IC50, pseudovirus neutralization [18]: 1 to 3 ng/mL
IC50, pseudovirus neutralization [19]: 150 ng/mL
IC50, pseudovirus neutralization [20]: 150 ng/mL and 280 ng/mL

B2: Tixagevimab (antibody, V domains shown)
VH: QMQLVQSGPEVKKPGTSVKVSCKASGFTFMSSAVQWVRQARGQRLEWIGWIVIGSGNTNYAQKFQERVTITRDMSTSTAYMELSSLRSEDTAVYYCAAPYCSSISCNDGFDIWGQGTMVTVSS
VL: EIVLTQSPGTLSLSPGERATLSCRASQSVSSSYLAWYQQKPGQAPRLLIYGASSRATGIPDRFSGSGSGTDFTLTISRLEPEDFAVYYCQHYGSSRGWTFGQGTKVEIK
IC50, pseudovirus neutralization [21]: 1.2 ng/mL
IC50, pseudovirus neutralization [22]: 3.2 ng/mL

B3: Bebtelovimab (antibody, V domains shown)
VH: QITLKESGPTLVKPTQTLTLTCTFSGFSLSISGVGVGWLRQPPGKALEWLALIYWDDDKRYSPSLKSRLTISKDTSKNQVVLKMTNIDPVDTATYYCAHHSISTIFDHWGQGTLVTVSS
VL: QSALTQPASVSGSPGQSITISCTATSSDVGDYNYVSWYQQHPGKAPKLMIFEVSDRPSGISNRFSGSKSGNTASLTISGLQAEDEADYYCSSYTTSSAVFGGGTKLTVLG
IC50, pseudovirus neutralization [21]: 1.9 ng/mL
IC50, pseudovirus neutralization [22]: 2.8 ng/mL

B4: Etesevimab (antibody, V domains shown)
VH: EVQLVESGGGLVQPGGSLRLSCAASGFTVSSNYMSWVRQAPGKGLEWVSVIYSGGSTFYADSVKGRFTISRDNSMNTLFLQMNSLRAEDTAVYYCARVLPMYGDYLDYWGQGTLVTVSS
VL: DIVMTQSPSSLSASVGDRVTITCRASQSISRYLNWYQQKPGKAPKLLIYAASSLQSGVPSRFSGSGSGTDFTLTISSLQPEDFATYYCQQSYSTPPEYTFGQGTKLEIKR
IC50, pseudovirus neutralization [21]: 6.6 ng/mL
IC50, pseudovirus neutralization [22]: 12 ng/mL

B5: Bamlanivimab (antibody, V domains shown)
VH: QVQLVQSGAEVKKPGSSVKVSCKASGGTFSNYAISWVRQAPGQGLEWMGRIIPILGIANYAQKFQGRVTITADKSTSTAYMELSSLRSEDTAVYYCARGYYEARHYYYYYAMDVWGQGTAVTVSS
VL: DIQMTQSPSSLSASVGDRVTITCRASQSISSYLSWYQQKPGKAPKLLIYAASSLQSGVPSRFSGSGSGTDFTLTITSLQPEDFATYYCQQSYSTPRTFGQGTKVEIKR
IC50, pseudovirus neutralization [21]: 2 ng/mL
IC50, pseudovirus neutralization [22]: 5.3 ng/mL

B6: Casirivimab (antibody, V domains shown)
VH: QVQLVESGGGLVKPGGSLRLSCAASGFTFSDYYMSWIRQAPGKGLEWVSYITYSGSTIYYADSVKGRFTISRDNAKSSLYLQMNSLRAEDTAVYYCARDRGTTMVPFDYWGQGTLVTVSS
VL: DIQMTQSPSSLSASVGDRVTITCQASQDITNYLNWYQQKPGKAPKLLIYAASNLETGVPSRFSGSGSGTDFTFTISGLQPEDIATYYCQQYDNLPLTFGGGTKVEIK
IC50, pseudovirus neutralization [21]: 2.3 ng/mL
IC50, pseudovirus neutralization [22]: 6.2 ng/mL

B7: Imdevimab (antibody, V domains shown)
VH: QVQLVESGGGVVQPGRSLRLSCAASGFTFSNYAMYWVRQAPGKGLEWVAVISYDGSNKYYADSVKGRFTISRDNSKNTLYLQMNSLRTEDTAVYYCASGSDYGDYLLVYWGQGTLVTVSS
VL: QSALTQPASVSGSPGQSITISCTGTSSDVGGYNYVSWYQQHPGKAPKLMIYDVSKRPSGVSNRFSGSKSGNTASLTISGLQSEDEADYYCNSLTSISTWVFGGGTKLTVLG
IC50, pseudovirus neutralization [21]: 2.5 ng/mL
IC50, pseudovirus neutralization [22]: 4.8 ng/mL

Source: patent publication US20240158479A1 (RUTGERS THE STATE UNIVERSITY OF NEW JERSEY, published 2024)
